Measurements from patent US20210371522A1 (CELGENE, published 2021).

How the values were obtained:
[1] = target: T1, human CD47, endogenous cell surface form (human, UniProt Q08722 19-323); experiment: cell-based or functional assay
T1 construct: Endogenous CD47 on human tumor cell lines; also called cell surface CD47; CD47 on Raji, CCRF-CEM and Daudi cells

[2] = target: T1, human CD47, endogenous cell surface form; experiment: as described in Examples 2 and 3
Source text: Exemplary murine CD47 antibodies disclosed here are shown in FIG. 2, as disclosed in U.S. patent application Ser. No. 13/960,136 (Publication No. US20140140989).

Row | Binder | phagocytosis of tumor cells (CFSE-labeled CCRF-CEM) by monocyte derived macrophages [1] | binding result [2]
1 | CD47 antibody B6H12 (antibody, from another filing, V domains shown) VH: EVQLVESGGDLVKPGGSLKLSCAASGFTFSGYGMSWVRQTPDKRLEWVATITSGGTYTYYPDSVKGRFTISRDNAKNTLYLQIDSLKSEDTAIYFCARSLAGNAMDYWGQGTSVTVSS VL: DIVMTQSPATLSVTPGDRVSLSCRASQTISDYLHWYQQKSHESPRLLIKFASQSISGIPSRFSGSGSGSDFTLSINSVEPEDVGVYYCQNGHGFPRTFGGGTKLEIK | 66.7 pM | –
2 | murine 9E4 antibody (antibody, mouse IgG1, V domains shown) VH: EVQLRQSGPELVKPGASVKISCKASGYSFTDYYMYWVKQSRVRSLAWIGRINPYTGATGYDQNFKDKASLIVDKSSSTAYMELRSLTSEDSAVYYCARGRNRYDGWFAYWGQGTLVTV VL: EIQMTQTTSSLSASLGDRVTISCRASQDISNYLNWYQQKPDGTVKLLIYYTSRLHSGVPSRFSGSGSGTDYSLTISNLDQEDIATYFCQQGNALPPTFGGGTNLEIK | – | binds
